Drawing on PMC9932072, this text covers k24 (association rate constant, dimer to tetramer) and k31 (dissociation rate constant, trimer to monomer) for 1 substance.

In this experiment the target is Lys^B29Atto655-insulin aspart (human) (UniProt P01308). The experiment in a line: single-molecule TIRF microscopy; 10 nM labelled insulin in solution binding to labelled insulin nonspecifically immobilised on a PLL-PEG passivated surface; no Zn^2+, no phenol; 10 mM Na2HPO4, 10 mM NaH2PO4, 5 mM NaCl, pH 7.32, room temperature; seven-state HMM, rate constants of each step between monomer and hexamer (kij: state i to state j).

“Lys^B29Atto655-insulin aspart (from UniProt P01308 90-110; P01308 25-54) (natural protein)” came in with a k24 (association rate constant, dimer to tetramer) of 2e+08 M⁻¹ s⁻¹ and a k31 (dissociation rate constant, trimer to monomer) of 0.062 s⁻¹.
